How the values were obtained:
Details in all cases: both partners purified
[1] = biological target: T1, CDK1-phosphorylated CHMP7 (human, UniProt Q8WUX9 1-453, phosphoserine at Ser3 and Ser441 (CDK1 sites named by the paper)); test: co-IP; CHMP7 pre-incubated with CDK1:CyclinB1 with or without 3 mM ATP, then 5 μM CHMP7 with 10 μM HA-LEM2^CT dialysed overnight at 4°C from HiSalt (250 mM KCl) into LoSalt buffer (30 mM HEPES pH 8, 25 mM KCl, 1 mM DTT); CHMP7 captured on anti-CHMP7 Dynabeads
T1 construct: CHMP7, human, full-length open reading frame, phosphorylated in vitro by CDK1:CyclinB1; also called recombinant CHMP7 incubated with CDK1 and CCNB1 in the presence of ATP; source: E. coli BL21(DE3), purified; phosphorylated in vitro with bought CDK1:CyclinB1 complex (Millipore) and 3 mM ATP; not shown: 2xHis6, N-terminal, cleaved; NusA, N-terminal, cleaved
T1 sequence (looked up): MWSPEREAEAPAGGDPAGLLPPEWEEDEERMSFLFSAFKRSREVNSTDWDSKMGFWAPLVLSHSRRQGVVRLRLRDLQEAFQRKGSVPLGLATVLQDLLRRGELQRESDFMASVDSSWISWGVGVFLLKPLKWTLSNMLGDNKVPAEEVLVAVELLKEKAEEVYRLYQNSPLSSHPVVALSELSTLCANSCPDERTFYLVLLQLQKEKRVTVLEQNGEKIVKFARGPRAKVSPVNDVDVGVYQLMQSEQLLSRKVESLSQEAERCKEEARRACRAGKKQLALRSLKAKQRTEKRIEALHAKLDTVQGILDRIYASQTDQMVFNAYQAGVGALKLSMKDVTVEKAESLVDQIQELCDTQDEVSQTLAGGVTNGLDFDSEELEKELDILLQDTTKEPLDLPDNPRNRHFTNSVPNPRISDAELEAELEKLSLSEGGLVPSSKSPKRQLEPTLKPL

[2] = biological target: T2, recombinant CHMP7 (full length, wild type) (human, UniProt Q8WUX9 1-453); test: co-IP; purified CHMP7 or S3D/S441D with HA-LEM2^CT at 1:2 in TKD buffer, overnight at 4°C; CHMP7 captured on anti-CHMP7 Dynabeads; washes with 0.05% Tween-20; blots with anti-CHMP7 and anti-HA
T2 construct: CHMP7, human, full-length open reading frame; the TEV site cleaves at the 1st methionine; In the CDK1 experiments this is the sample incubated with CDK1:CyclinB1 without ATP; also called CHMP7 wildtype; WT; source: E. coli BL21(DE3), purified (Ni-NTA, TEV cleavage, Superdex 200, monomeric fractions); not shown: 2xHis6, N-terminal, cleaved; NusA, N-terminal, cleaved
T2 sequence (looked up): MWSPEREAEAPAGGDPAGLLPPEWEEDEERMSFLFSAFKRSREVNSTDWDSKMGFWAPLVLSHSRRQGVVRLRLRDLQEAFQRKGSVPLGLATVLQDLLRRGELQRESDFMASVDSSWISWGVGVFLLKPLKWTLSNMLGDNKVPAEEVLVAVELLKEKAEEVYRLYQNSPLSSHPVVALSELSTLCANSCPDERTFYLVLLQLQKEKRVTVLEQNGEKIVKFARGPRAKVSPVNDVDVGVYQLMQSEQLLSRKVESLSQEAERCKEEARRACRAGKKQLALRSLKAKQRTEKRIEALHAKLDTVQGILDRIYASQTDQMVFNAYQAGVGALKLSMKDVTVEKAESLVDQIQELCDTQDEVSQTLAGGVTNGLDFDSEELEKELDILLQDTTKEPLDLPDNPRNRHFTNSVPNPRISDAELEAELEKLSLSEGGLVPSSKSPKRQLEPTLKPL

[3] = biological target: T3, recombinant CHMP7 S3D/S441D (human, UniProt Q8WUX9 1-453, S3D | S441D); test: co-sedimentation; 5 μM CHMP7 or mutant with 10 μM HA-LEM2^CT (one legend says equimolar) in TKD buffer (50 mM Tris HCl pH 8, 150 mM KCl, 1 mM DTT), room temperature for 2 hr; 22,000 x g for 40 min at 4°C; blots with anti-CHMP7 and anti-HA
T3 construct: CHMP7, human, full length with phosphomimetic residues at Ser3 and Ser441; source: E. coli BL21(DE3), purified (Ni-NTA, TEV cleavage, Superdex 200); not shown: 2xHis6, N-terminal, cleaved; NusA, N-terminal, cleaved
T3 sequence (looked up): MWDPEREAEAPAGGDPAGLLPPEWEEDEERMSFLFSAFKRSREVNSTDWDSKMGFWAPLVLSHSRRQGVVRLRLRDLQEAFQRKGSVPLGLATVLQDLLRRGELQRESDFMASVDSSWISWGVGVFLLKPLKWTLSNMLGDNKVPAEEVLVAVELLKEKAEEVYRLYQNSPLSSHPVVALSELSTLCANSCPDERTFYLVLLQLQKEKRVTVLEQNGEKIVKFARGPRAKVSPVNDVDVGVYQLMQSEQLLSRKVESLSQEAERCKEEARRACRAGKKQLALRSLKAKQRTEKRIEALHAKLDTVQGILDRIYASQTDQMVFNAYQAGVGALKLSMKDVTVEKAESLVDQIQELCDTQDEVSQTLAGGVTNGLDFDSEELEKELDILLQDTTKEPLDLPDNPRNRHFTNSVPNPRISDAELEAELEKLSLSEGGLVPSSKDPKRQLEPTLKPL

[4] = biological target: T4, recombinant CHMP7 S3E/S441E (human, UniProt Q8WUX9 1-453, S3E | S441E); test: as above
T4 construct: CHMP7, human, full length with phosphomimetic residues at Ser3 and Ser441; also called CHMP7 S3E/D441E (as printed once in the methods); source: E. coli BL21(DE3), purified (Ni-NTA, TEV cleavage, Superdex 200); not shown: 2xHis6, N-terminal, cleaved; NusA, N-terminal, cleaved
T4 sequence (looked up): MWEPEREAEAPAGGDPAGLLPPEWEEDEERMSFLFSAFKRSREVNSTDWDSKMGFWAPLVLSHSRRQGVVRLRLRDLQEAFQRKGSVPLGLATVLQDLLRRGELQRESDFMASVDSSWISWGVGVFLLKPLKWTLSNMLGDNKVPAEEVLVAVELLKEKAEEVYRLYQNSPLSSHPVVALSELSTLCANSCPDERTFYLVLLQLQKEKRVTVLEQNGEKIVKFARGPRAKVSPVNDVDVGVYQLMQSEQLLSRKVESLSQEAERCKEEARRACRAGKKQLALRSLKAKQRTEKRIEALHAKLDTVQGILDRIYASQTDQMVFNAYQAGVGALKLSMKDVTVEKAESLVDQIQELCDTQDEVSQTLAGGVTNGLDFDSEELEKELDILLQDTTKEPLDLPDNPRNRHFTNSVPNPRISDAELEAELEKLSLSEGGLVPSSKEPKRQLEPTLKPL

Measured: binding result

B1: recombinant HA-LEM2^CT (LEM2 C-terminal domain 395-503) (domain or fragment, human, UniProt Q8NC56 395-503, looked up)
chain: ILLKYRWRKLEEEEQAMYEMVKKIIDVVQDHYVDWEQDMERYPYVGILHVRDSLIPPQSRRRMKRVWDRAVEFLASNESRIQTESHRVAGEDMLVWRWTKPSSFSDSER
notes: LEM2 (LEMD2), human, codon-optimised synthetic gene, C-terminal domain residues 395-503; also called LEM2's C-terminus; source: E. coli BL21(DE3), purified (Ni-NTA, on-bead TEV cleavage); not shown: 2xHis6, N-terminal, cleaved; NusA, N-terminal, cleaved; HA, N-terminal, kept
binds: [1] | [2] | [3] | [4]

Source: PMC8324300, “CDK1 controls CHMP7-dependent nuclear envelope reformation” (eLife, 2021)
